We go through seven molecules from patent publication US20190015483A1 (CSL BEHRING RECOMBINANT FACILITY, published 2019).

To fix the notation:
T1: recombinant Factor VIII (CSL627, rVIII-SingleChain) (Homo sapiens (Human), UniProt P00451 20-2351)
T1 construct: also called FVIII
T1 sequence: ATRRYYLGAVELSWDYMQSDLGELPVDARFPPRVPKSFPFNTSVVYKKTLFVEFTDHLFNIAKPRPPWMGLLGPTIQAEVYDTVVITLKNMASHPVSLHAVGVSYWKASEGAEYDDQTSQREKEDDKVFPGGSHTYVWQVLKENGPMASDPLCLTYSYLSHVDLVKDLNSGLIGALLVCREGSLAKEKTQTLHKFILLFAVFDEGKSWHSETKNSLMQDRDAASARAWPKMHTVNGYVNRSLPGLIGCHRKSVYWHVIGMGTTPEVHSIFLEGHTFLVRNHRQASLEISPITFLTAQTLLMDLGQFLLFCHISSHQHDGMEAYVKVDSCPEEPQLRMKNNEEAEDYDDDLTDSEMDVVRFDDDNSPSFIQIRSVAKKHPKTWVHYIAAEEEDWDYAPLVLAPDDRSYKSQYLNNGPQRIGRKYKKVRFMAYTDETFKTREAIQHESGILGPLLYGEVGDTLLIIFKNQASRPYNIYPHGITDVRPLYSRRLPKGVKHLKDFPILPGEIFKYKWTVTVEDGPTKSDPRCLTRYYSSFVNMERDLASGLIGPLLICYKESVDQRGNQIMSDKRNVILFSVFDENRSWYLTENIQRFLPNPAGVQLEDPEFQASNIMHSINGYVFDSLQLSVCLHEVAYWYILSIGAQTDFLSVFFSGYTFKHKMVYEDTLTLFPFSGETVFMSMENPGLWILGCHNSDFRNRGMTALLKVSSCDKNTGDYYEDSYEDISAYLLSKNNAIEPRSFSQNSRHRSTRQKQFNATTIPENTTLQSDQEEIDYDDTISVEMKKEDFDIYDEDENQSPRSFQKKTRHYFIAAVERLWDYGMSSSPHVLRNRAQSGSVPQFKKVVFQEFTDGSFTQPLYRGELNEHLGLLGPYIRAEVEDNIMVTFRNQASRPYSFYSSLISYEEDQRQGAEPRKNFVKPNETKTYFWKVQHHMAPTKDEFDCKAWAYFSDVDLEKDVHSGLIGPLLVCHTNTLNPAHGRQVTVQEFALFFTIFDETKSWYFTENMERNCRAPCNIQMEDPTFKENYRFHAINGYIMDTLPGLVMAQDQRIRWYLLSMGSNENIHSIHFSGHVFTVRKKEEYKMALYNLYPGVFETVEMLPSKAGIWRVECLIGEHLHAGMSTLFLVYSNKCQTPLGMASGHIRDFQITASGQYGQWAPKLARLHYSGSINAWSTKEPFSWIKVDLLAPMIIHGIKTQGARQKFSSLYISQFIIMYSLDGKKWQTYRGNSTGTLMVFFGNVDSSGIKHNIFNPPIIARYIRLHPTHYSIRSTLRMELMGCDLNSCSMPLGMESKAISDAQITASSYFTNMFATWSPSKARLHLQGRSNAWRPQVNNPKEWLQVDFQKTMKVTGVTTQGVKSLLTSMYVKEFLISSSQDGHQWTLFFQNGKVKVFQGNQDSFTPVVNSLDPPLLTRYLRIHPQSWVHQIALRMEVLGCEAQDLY

B1: Hu-vWF[764-1270]-8His S764P-L765E-S766I (other)
chain: PEICRPPMVKLVCPADNLRAEGLECTKTCQNYDLECMSMGCVSGCLCPPGMVRHENRCVALERCPCFHQGKEYAPGETVKIGCNTCVCRDRKWNCTDHVCDATCSTIGMAHYLTFDGLKYLFPGECQYVLVQDYCGSNPGTFRILVGNKGCSHPSVKCKKRVTILVEGGEIELFDGEVNVKRPMKDETHFEVVESGRYIILLLGKALSVVWDRHLSISVVLKQTYQEKVCGLCGNFDGIQNNDLTSSNLQVEEDPVDFGNSWKVSSQCADTRKVPLDSSPATCHNNIMKQTMVDSSCRILTSDVFQDCNKLVDPEPYLDVCIYDTCSCESIGDCACFCDTIAAYAHVCAQHGKVVTWRTATLCPQSCEERNLRENGYECEWRYNSCAPACQVTCQHPEPLACPVQCVEGCHAHCPPGKILDELLQTCVDPEDCPVCEVAGRRFASGKKVTLNPSDPEHCQICHCDVVNLTCEACQEPGGLVVPPTDAPVSPTTLYVEDISEPPLHDFHHHHHHHH
B2: Hu-vWF[764-1270]-8His S764P-L765G-S766I (other)
chain: PGICRPPMVKLVCPADNLRAEGLECTKTCQNYDLECMSMGCVSGCLCPPGMVRHENRCVALERCPCFHQGKEYAPGETVKIGCNTCVCRDRKWNCTDHVCDATCSTIGMAHYLTFDGLKYLFPGECQYVLVQDYCGSNPGTFRILVGNKGCSHPSVKCKKRVTILVEGGEIELFDGEVNVKRPMKDETHFEVVESGRYIILLLGKALSVVWDRHLSISVVLKQTYQEKVCGLCGNFDGIQNNDLTSSNLQVEEDPVDFGNSWKVSSQCADTRKVPLDSSPATCHNNIMKQTMVDSSCRILTSDVFQDCNKLVDPEPYLDVCIYDTCSCESIGDCACFCDTIAAYAHVCAQHGKVVTWRTATLCPQSCEERNLRENGYECEWRYNSCAPACQVTCQHPEPLACPVQCVEGCHAHCPPGKILDELLQTCVDPEDCPVCEVAGRRFASGKKVTLNPSDPEHCQICHCDVVNLTCEACQEPGGLVVPPTDAPVSPTTLYVEDISEPPLHDFHHHHHHHH
B3: Hu-vWF[764-1270]-8His S764P-L765I-S766I (other)
chain: PIICRPPMVKLVCPADNLRAEGLECTKTCQNYDLECMSMGCVSGCLCPPGMVRHENRCVALERCPCFHQGKEYAPGETVKIGCNTCVCRDRKWNCTDHVCDATCSTIGMAHYLTFDGLKYLFPGECQYVLVQDYCGSNPGTFRILVGNKGCSHPSVKCKKRVTILVEGGEIELFDGEVNVKRPMKDETHFEVVESGRYIILLLGKALSVVWDRHLSISVVLKQTYQEKVCGLCGNFDGIQNNDLTSSNLQVEEDPVDFGNSWKVSSQCADTRKVPLDSSPATCHNNIMKQTMVDSSCRILTSDVFQDCNKLVDPEPYLDVCIYDTCSCESIGDCACFCDTIAAYAHVCAQHGKVVTWRTATLCPQSCEERNLRENGYECEWRYNSCAPACQVTCQHPEPLACPVQCVEGCHAHCPPGKILDELLQTCVDPEDCPVCEVAGRRFASGKKVTLNPSDPEHCQICHCDVVNLTCEACQEPGGLVVPPTDAPVSPTTLYVEDISEPPLHDFHHHHHHHH
B4: Hu-vWF[764-1270]-8His S764P-L765M-S766I (other)
chain: PMICRPPMVKLVCPADNLRAEGLECTKTCQNYDLECMSMGCVSGCLCPPGMVRHENRCVALERCPCFHQGKEYAPGETVKIGCNTCVCRDRKWNCTDHVCDATCSTIGMAHYLTFDGLKYLFPGECQYVLVQDYCGSNPGTFRILVGNKGCSHPSVKCKKRVTILVEGGEIELFDGEVNVKRPMKDETHFEVVESGRYIILLLGKALSVVWDRHLSISVVLKQTYQEKVCGLCGNFDGIQNNDLTSSNLQVEEDPVDFGNSWKVSSQCADTRKVPLDSSPATCHNNIMKQTMVDSSCRILTSDVFQDCNKLVDPEPYLDVCIYDTCSCESIGDCACFCDTIAAYAHVCAQHGKVVTWRTATLCPQSCEERNLRENGYECEWRYNSCAPACQVTCQHPEPLACPVQCVEGCHAHCPPGKILDELLQTCVDPEDCPVCEVAGRRFASGKKVTLNPSDPEHCQICHCDVVNLTCEACQEPGGLVVPPTDAPVSPTTLYVEDISEPPLHDFHHHHHHHH
B5: Hu-vWF[764-1270]-8His S764P-L765H-S766I (other)
chain: PHICRPPMVKLVCPADNLRAEGLECTKTCQNYDLECMSMGCVSGCLCPPGMVRHENRCVALERCPCFHQGKEYAPGETVKIGCNTCVCRDRKWNCTDHVCDATCSTIGMAHYLTFDGLKYLFPGECQYVLVQDYCGSNPGTFRILVGNKGCSHPSVKCKKRVTILVEGGEIELFDGEVNVKRPMKDETHFEVVESGRYIILLLGKALSVVWDRHLSISVVLKQTYQEKVCGLCGNFDGIQNNDLTSSNLQVEEDPVDFGNSWKVSSQCADTRKVPLDSSPATCHNNIMKQTMVDSSCRILTSDVFQDCNKLVDPEPYLDVCIYDTCSCESIGDCACFCDTIAAYAHVCAQHGKVVTWRTATLCPQSCEERNLRENGYECEWRYNSCAPACQVTCQHPEPLACPVQCVEGCHAHCPPGKILDELLQTCVDPEDCPVCEVAGRRFASGKKVTLNPSDPEHCQICHCDVVNLTCEACQEPGGLVVPPTDAPVSPTTLYVEDISEPPLHDFHHHHHHHH
B6: Hu-vWF[764-1270]-8His S764P-L765Q-S766I (other)
chain: PQICRPPMVKLVCPADNLRAEGLECTKTCQNYDLECMSMGCVSGCLCPPGMVRHENRCVALERCPCFHQGKEYAPGETVKIGCNTCVCRDRKWNCTDHVCDATCSTIGMAHYLTFDGLKYLFPGECQYVLVQDYCGSNPGTFRILVGNKGCSHPSVKCKKRVTILVEGGEIELFDGEVNVKRPMKDETHFEVVESGRYIILLLGKALSVVWDRHLSISVVLKQTYQEKVCGLCGNFDGIQNNDLTSSNLQVEEDPVDFGNSWKVSSQCADTRKVPLDSSPATCHNNIMKQTMVDSSCRILTSDVFQDCNKLVDPEPYLDVCIYDTCSCESIGDCACFCDTIAAYAHVCAQHGKVVTWRTATLCPQSCEERNLRENGYECEWRYNSCAPACQVTCQHPEPLACPVQCVEGCHAHCPPGKILDELLQTCVDPEDCPVCEVAGRRFASGKKVTLNPSDPEHCQICHCDVVNLTCEACQEPGGLVVPPTDAPVSPTTLYVEDISEPPLHDFHHHHHHHH
B7: Hu-vWF[764-1270]-8His S764P-L765K-S766I (other)
chain: PKICRPPMVKLVCPADNLRAEGLECTKTCQNYDLECMSMGCVSGCLCPPGMVRHENRCVALERCPCFHQGKEYAPGETVKIGCNTCVCRDRKWNCTDHVCDATCSTIGMAHYLTFDGLKYLFPGECQYVLVQDYCGSNPGTFRILVGNKGCSHPSVKCKKRVTILVEGGEIELFDGEVNVKRPMKDETHFEVVESGRYIILLLGKALSVVWDRHLSISVVLKQTYQEKVCGLCGNFDGIQNNDLTSSNLQVEEDPVDFGNSWKVSSQCADTRKVPLDSSPATCHNNIMKQTMVDSSCRILTSDVFQDCNKLVDPEPYLDVCIYDTCSCESIGDCACFCDTIAAYAHVCAQHGKVVTWRTATLCPQSCEERNLRENGYECEWRYNSCAPACQVTCQHPEPLACPVQCVEGCHAHCPPGKILDELLQTCVDPEDCPVCEVAGRRFASGKKVTLNPSDPEHCQICHCDVVNLTCEACQEPGGLVVPPTDAPVSPTTLYVEDISEPPLHDFHHHHHHHH

For the experiment, the target named is T1, recombinant Factor VIII (CSL627, …). Briefly: SPR, anti-His capture, FVIII injected, 37 C. The method, then: Binding kinetics were investigated by surface plasmon resonance using a Biacore 4000 biosensor at 37° C. Each mutant was captured from cell culture medium to a density of 40-150 RU on a CM-5 sensor chip pre-immobilised with anti-His antibody (14,000 RU). In an initial screening study, FVIII was injected over the captured mutants for 5 minutes at 1 nM and dissociation monitored for 5 minutes.
All sensorgrams were double referenced by subtraction of signals from a reference spot (containing only immobilised anti His antibody) and from a blank injection. Binding kinetics were determined by fitting the double referenced sensorgrams to a 1:1 kinetic model.
As for B1, the Kd (commonly the concentration at which binding is half-saturated) was found to be 53.6 nM, the koff (usually a measure of how fast the partners let go of each other) turned out to be 0.055 s⁻¹ and the on-rate (kon) (commonly a measure of how fast the partners come together) stood at 1.03e+06 M⁻¹ s⁻¹.

Take B2: the Kd stood at 0.241 nM, the dissociation rate constant (koff) came to 0.0122 s⁻¹ and the association rate constant (kon) was determined as 5.04e+07 M⁻¹ s⁻¹.

On to B3, for which the Kd turned out to be 1.62 nM, the off-rate (koff) came out at 0.0103 s⁻¹ and the kon turned out to be 6.34e+06 M⁻¹ s⁻¹.

B4: the equilibrium dissociation constant (Kd) stood at 0.00241 nM, the koff amounted to 0.000137 s⁻¹ and the kon was found to be 5.69e+07 M⁻¹ s⁻¹.

As for B5, the Kd amounted to 0.0424 nM, the koff is 6.6e-05 s⁻¹ and the kon is 1.56e+06 M⁻¹ s⁻¹.

For the molecule B6, the equilibrium dissociation constant (Kd) came to 0.248 nM, the koff was determined as 0.000286 s⁻¹ and the kon was determined as 1.15e+06 M⁻¹ s⁻¹.

For the molecule B7, the equilibrium dissociation constant (Kd) was found to be 0.0218 nM, the off-rate constant (koff) is 0.0015 s⁻¹ and the association rate constant (kon) is 6.88e+07 M⁻¹ s⁻¹.
